According to paper doi:10.1101/716654 (bioRxiv, 2019):

Target: the molecule itself
Test: native gel or EMSA

B1: hNav1.7^GFP (human voltage-gated sodium channel Nav1.7 fused to C-terminal GFP) (natural protein)
chain: not shown
- stoichiometry N: 2
